Reference: article PMC5440810

Legend:
[1] = target: P18-I10/H2-D^d, BirA-tagged and biotinylated (mouse | not stated); assay: SPR
[2] = target: P18-I10/H2-D^d (peptide-loaded MHC class I with β2m) (mouse | not stated); assay: AUC

B4.2.3 TCR, soluble disulfide-linked αβ heterodimer (extracellular portions)
Kd [1]: 540 nM
Kd [2]: 230 nM
stoichiometry N [2]: 1
